{"source": "paper PMC3140568", "about": "(Journal of immunology (Baltimore, Md. : 1950), 2011)", "target": "T1, TNF receptor-associated death domain protein, wild type (human, UniProt Q15628 1-312)", "T1 sequence (looked up)": "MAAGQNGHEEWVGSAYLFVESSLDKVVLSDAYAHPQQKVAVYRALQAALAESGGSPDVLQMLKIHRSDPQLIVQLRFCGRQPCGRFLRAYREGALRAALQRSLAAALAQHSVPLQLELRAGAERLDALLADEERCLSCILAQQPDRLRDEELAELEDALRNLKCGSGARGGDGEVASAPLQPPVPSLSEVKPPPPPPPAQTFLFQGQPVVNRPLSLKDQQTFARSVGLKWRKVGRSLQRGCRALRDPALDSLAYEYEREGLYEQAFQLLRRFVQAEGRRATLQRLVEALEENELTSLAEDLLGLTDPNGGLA", "test": "peptide competition on an immuno-purified complex", "note": "Square brackets hold non-standard residues; d marks the D form. Ends that are not written are not given here. pS = N[C@@H](COP(=O)(O)O)C(=O)O"}
{"binder": "VRRLGL[pS]DHEIDRLELQNGRC (peptide, UniProt P19438 375-395, looked up)", "note": "[phosphorylated peptide containing the S381XXE motif of TNFR1 (position 375–395)]", "values": [{"measurement": "binding result", "result": "binds"}]}
